Reference: article PMC5993831 (2018)

Biological target: PD-L1 (Mus musculus, UniProt Q9EP73)
Sequence (Q9EP73 19-239): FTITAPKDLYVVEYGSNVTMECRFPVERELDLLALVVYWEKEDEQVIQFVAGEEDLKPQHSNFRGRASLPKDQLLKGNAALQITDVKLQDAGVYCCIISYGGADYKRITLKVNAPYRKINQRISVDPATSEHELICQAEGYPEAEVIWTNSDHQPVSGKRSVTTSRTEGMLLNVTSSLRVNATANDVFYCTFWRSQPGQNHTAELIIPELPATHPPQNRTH

Kd: 0.219 nM
B1: PD-L1 trap (trimeric PD-1 ECD fused to CMP1 trimerization domain) 21-150 (protein)
chain: SGWLLEVPNGPWRSLTFYPAWLTVSEGANATFTCSLSNWSEDLMLNWNRLSPSNQTEKQAAFCNGLSQPVQDARFQIIQLPNRHDFHMNILDTRRNDSGIYLCGAISLHPKAKIEESPGAELVVTERILE
modifications: trimeric fusion with mouse CMP1 residues 458-500 via hinge linker, His6 tag
